# The Human Domainome abundance scans (Beltran et al. 2025)
# ± gives the uncertainty stated by the source.
# Test: abundance fitness (aPCA) (normalised: wild type 0, dead -1); higher = more abundant; growth selection in yeast, the domain comes from the species named
# Settings: Homo sapiens
row,Substance,abundance fitness
1,"Lipoamide acyltransferase component of branched-chain alpha-keto acid dehydrogenase complex, mitochondrial Y208W, P11182",-0.186 ± 0.05
2,"Nanos homolog 2 D85A, P60321",0.03 ± 0.11
3,"Nanos homolog 2 D106A, P60321",-0.206 ± 0.098
4,"Nanos homolog 2 H74A, P60321",-0.238 ± 0.12
5,"Nanos homolog 2 H95Q, P60321",-0.092 ± 0.071
6,"Nanos homolog 2 I92Y, P60321",-0.308 ± 0.14
7,"Nanos homolog 2 K67R, P60321",-0.197 ± 0.05
8,"Nanos homolog 2 K82R, P60321",-0.243 ± 0.069
9,"Nanos homolog 2 K112R, P60321",-0.171 ± 0.096
10,"Nanos homolog 2 L111K, P60321",0.292 ± 0.074
11,"Nanos homolog 2 Q80C, P60321",0.191 ± 0.11
12,"Nanos homolog 2 Q107R, P60321",-0.016 ± 0.12
13,"Nanos homolog 2 R73E, P60321",0.102 ± 0.067
14,"Nanos homolog 2 S77R, P60321",-0.003 ± 0.069
15,"Nanos homolog 2 V87G, P60321",-0.082 ± 0.088
16,"Nanos homolog 2 V89S, P60321",0.094 ± 0.066
17,"Nanos homolog 2 V97I, P60321",0.008 ± 0.12
18,"Nanos homolog 2 V100L, P60321",-0.123 ± 0.077
19,"Nanos homolog 2 Y76F, P60321",-0.14 ± 0.13
20,"Nanos homolog 2 Y113H, P60321",0.057 ± 0.11
